Data: US20040254354A1 (INHIBITEX, published 2004)

B1: γ chain of human fibrinogen (ligand)
chain: YVATRDNCCILDERFGSYCPTTCGIADFLSTYQTKVDKDLQSLEDILHQVENKTSEVKQLIKAIQLTYNPDESSKPNMIDAATLKSRKMLEEIMKYEASILTHDSSIRYLQEIYNSNNQKIVNLKEKVAQLEAQCQEPCKDTVQIHDITGKDCQDIANKGAKQSGLYFIKPLKANQQFLVYCEIDGSGNGWTVFQKRLDGSVDFKKNWIQYKEGFGHLSPTGTTEFWLGNEKIHLISTQSAIPYALRVELEDWNGRTSTADYAMFKVGPEADKYRLTYAYFAGGDAGDAFDGFDFGDDPSDKFFTSHNGMQFSTWDNDNDKFEGNCAEQDGSGWWMNKCHAGHLNGVYYQGGTYSKASTPNGYDNGIIWATWKTRWYSMKKTTMKIIPFNRLTIGEGQQHHLGGAKQAGDV
notes: also called gamma-chain of fibrinogen; y chain of fibrinogen
B2: biotinylated recombinant region A from ClfA (other)
chain: SENSVTQSDSASNESKSNDSSSVSAAPKTDDTNVSDTKTSSNTNNGETSVAQNPAQQETTQSSSTNATTEETPVTGEATTTTTNQANTPATTQSSNTNAEELVNQTSNETTFNDTNTVSSVNSPQNSTNAENVSTTQDTSTEATPSNNESAPQSTDASNKDVVNQAVNTSAPRMRAFSLAAVAADAPAAGTDITNQLTNVTVGIDSGTTVYPHQAGYVKLNYGFSVPNSAVKGDTFKITVPKELNLNGVTSTAKVPPIMAGDQVLANGVIDSDGNVIYTFTDYVNTKDDVKATLTMPAYIDPENVKKTGNVTLATGIGSTTANKTVLVDYEKYGKFYNLSIKGTIDQIDKTNNTYRQTIYVNPSGDNVIAPVLTGNLKPNTDSNALIDQQNTSIKVYKVDNAADLSESYFVNPENFEDVTNSVNITFPNPNQYKVEFNTPDDQITTPYIVVVNGHIDPNSKGDLALRSTLYGYNSNIIWRSMSWDNEVAFNNGSGSGDGIDKPVVPEQPDEPGEIEPIPE
modifications: biotinylated (sites not given)
notes: domain: region A; also called ClfA region A; biotinylated ClfA

How the values were obtained:
[1] = biological target: human fibrinogen (human) (UniProt P02671); experiment: cell-based or functional assay
[2] = biological target: B2; experiment: Western affinity blot of human fibrinogen (FIG. 22)
[3] = biological target: T1, human fibrinogen (human, UniProt P02671 20-629; P02675 31-491; P02679 27-437); experiment: direct ELISA, biotinylated region A on fibrinogen-coated plates
T1 construct: Bought (Chromogenix for ELISA and blots; Calbiochem, plasminogen free, for clumping assays); The plate adherence paragraphs say only 'fibrinogen'; also called solid phase fibrinogen; immobilized fibrinogen
T1 sequence 1: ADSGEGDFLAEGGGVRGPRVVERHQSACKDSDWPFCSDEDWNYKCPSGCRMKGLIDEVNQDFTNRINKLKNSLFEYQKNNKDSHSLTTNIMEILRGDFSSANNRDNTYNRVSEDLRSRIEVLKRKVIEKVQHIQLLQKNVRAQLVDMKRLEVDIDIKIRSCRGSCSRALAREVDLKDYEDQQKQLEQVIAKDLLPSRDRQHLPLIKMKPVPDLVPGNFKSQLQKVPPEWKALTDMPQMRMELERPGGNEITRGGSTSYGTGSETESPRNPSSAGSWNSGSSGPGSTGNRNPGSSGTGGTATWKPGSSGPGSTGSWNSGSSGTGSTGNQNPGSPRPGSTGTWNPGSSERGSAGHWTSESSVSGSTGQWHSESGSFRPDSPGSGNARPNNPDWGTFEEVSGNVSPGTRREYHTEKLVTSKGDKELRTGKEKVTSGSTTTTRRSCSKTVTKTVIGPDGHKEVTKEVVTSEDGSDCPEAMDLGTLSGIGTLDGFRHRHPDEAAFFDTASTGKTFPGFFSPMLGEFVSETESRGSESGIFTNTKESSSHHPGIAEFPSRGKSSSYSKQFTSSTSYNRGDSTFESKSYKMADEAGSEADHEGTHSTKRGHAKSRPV
T1 sequence 2: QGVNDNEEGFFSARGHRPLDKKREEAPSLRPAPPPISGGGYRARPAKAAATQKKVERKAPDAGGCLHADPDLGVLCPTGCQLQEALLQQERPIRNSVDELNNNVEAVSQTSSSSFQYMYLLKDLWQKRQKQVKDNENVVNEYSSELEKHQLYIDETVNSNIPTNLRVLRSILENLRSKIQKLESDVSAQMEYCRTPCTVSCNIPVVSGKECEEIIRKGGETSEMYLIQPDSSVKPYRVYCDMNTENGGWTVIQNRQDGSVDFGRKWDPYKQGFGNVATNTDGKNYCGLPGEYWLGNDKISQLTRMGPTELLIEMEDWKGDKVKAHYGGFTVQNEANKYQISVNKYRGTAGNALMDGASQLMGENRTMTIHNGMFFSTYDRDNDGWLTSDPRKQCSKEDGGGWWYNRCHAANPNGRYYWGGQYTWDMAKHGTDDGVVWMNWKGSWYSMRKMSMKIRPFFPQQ
T1 sequence 3: B1 chain

[4] = biological target: T2, bovine serum albumin (bovine, UniProt P02769 25-607); experiment: direct ELISA, biotinylated region A on BSA-coated plates
T2 construct: also called BSA
T2 sequence (P02769 25-607 limits assumed): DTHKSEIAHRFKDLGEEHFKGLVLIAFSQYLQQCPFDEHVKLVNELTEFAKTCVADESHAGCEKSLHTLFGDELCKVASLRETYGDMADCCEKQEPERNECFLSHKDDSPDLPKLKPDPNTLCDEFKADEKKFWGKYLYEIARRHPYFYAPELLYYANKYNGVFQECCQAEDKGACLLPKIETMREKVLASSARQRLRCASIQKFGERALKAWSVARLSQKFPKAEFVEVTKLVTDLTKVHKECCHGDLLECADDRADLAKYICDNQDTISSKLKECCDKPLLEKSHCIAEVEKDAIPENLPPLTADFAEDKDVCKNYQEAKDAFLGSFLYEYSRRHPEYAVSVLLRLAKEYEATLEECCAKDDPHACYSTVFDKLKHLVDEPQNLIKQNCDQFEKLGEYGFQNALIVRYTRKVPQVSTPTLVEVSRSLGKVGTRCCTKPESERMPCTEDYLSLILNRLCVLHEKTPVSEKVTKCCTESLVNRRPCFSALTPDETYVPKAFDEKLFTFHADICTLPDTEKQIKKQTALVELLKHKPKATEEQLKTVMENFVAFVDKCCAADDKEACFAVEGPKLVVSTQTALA

Molecule: ClfA (native, on S. aureus Newman cells) (from UniProt Q53653 40-899)
- Clumping titer, µg/ml fibrinogen; clfB mutant, exponential phase (µg/ml fibrinogen) [1]: 1.95
- Clumping titer, µg/ml fibrinogen; clfB mutant, stationary phase (µg/ml fibrinogen) [1]: 0.98
- Clumping titer, µg/ml fibrinogen; wild-type, stationary phase (µg/ml fibrinogen) [1]: 0.98

Molecule: B1
- binding result [2]: binds

Molecule: B2
- binding at the highest concentration, relative to ClfB region A [3]: ~50 % greater than ClfB
- binding result [4]: no binding
